# Laboratory results as given in patent US20200199241A1 (Chugai, published 2020).
# Residue numbers refer to the chain shown, from its start. In names and notes the source's numbering stands.
# B1: IgG1-F497 (antibody)
# heavy: QVQLQESGPGLVKPSETLSLTCAVSGHSISHDHAWSWVRQPPGEGLEWIGFISYSGITNYNPSLQGRVTISRDNSKNTLYLQMNSLRAEDTAVYYCARSLARTTAMDYWGEGTLVTVSSASTKGPSVFPLAPSSKSTSGGTAALGCLVKDYFPEPVTVSWNSGALTSGVHTFPAVLQSSGLYSLSSVVTVPSSSLGTQTYICNVNHKPSNTKVDKKVEPKSCDKTHTCPPCPAPELLGGPSVFLFPPKPKDTLMISRTTEVTCVVVDVSHEDPEVKFNWYVDGVEVHNAKTKPREEQYNSTYRVVSVLAVLHQDWLNGKEYKCKVSNKALPAPIEKTISKAKGQPREPQVYTLPPSRDELTKNQVSLTCLVKGFYPSDIAVEWESNGQPENNYKTTPPVLDSDGSFFLYSKLTVDKSRWQQGNVFSCSVVHEALHYHYTQKSLSLSP
# light: not shown
# notes: EU numbering; 'N428V' as printed, probably M428V; copies: 2 + 2
# B2: IgG1-F549 (antibody)
# heavy: B1 heavy with T252S, T259V, A309Q, V430L
# light: not shown
# notes: EU numbering; copies: 2 + 2
# B3: IgG1-F517 (antibody)
# heavy: B1 heavy with T259V, N288E, A309T, V430M
# light: not shown
# notes: EU numbering; copies: 2 + 2
# B4: IgG1-F533 (antibody)
# heavy: B1 heavy with T259A, N288E, A309Q, V430F
# light: not shown
# notes: EU numbering; copies: 2 + 2
# B5: IgG1-F510 (antibody)
# heavy: B1 heavy with T259V, A309Q, N391A, V430L
# light: not shown
# notes: EU numbering; copies: 2 + 2
# B6: IgG1-F498 (antibody)
# heavy: B1 heavy with T259A, A309T
# light: not shown
# notes: as for B1
# B7: IgG1-F499 (antibody)
# heavy: B1 heavy with T259A
# light: not shown
# notes: EU numbering; copies: 2 + 2
# B8: IgG1-F523 (antibody)
# heavy: B1 heavy with T259V, V307A, A309Q, V430Y
# light: not shown
# notes: EU numbering; copies: 2 + 2
# B9: IgG1-F538 (antibody)
# heavy: B1 heavy with T252F, T259V, A309Q, V430L
# light: not shown
# notes: EU numbering; copies: 2 + 2
# B10: IgG1-F544 (antibody)
# heavy: B1 heavy with T252M, T259V, A309Q, V430L
# light: not shown
# notes: EU numbering; copies: 2 + 2
# B11: IgG1-F541 (antibody)
# heavy: B1 heavy with T252I, T259V, A309Q, V430L
# light: not shown
# notes: EU numbering; copies: 2 + 2
# B12: IgG1-F535 (antibody)
# heavy: B1 heavy with T252A, T259V, A309Q, V430L
# light: not shown
# notes: EU numbering; copies: 2 + 2
# B13: IgG1-F519 (antibody)
# heavy: B1 heavy with T259V, N288E, A309Q, V430M
# light: not shown
# notes: EU numbering; copies: 2 + 2
# B14: IgG1-F534 (antibody)
# heavy: B1 heavy with T259A, N288E, A309Q, V430Y
# light: not shown
# notes: EU numbering; copies: 2 + 2
# B15: IgG1-F521 (antibody)
# heavy: B1 heavy with T259V, N288E, A309Q, V430Y
# light: not shown
# notes: EU numbering; copies: 2 + 2
# B16: IgG1-F526 (antibody)
# heavy: B1 heavy with A309Q, V430Y
# light: not shown
# notes: EU numbering; copies: 2 + 2
# B17: IgG1-F507 (antibody)
# heavy: B1 heavy with T259V, N288A, A309Q, V430L
# light: not shown
# notes: EU numbering; copies: 2 + 2
# B18: IgG1-F506 (antibody)
# heavy: B1 heavy with T259V, N299A, A309Q, V430L
# light: not shown
# notes: EU numbering; copies: 2 + 2
# B19: IgG1-F500 (antibody)
# heavy: B1 heavy with T259S, A309Q, V430L
# light: not shown
# notes: EU numbering; copies: 2 + 2
# B20: IgG1-F508 (antibody)
# heavy: B1 heavy with T259V, A309Q, N317A, V430L
# light: not shown
# notes: EU numbering; copies: 2 + 2
# B21: IgG1-F518 (antibody)
# heavy: B1 heavy with N288E, A309T, V430M
# light: not shown
# notes: EU numbering; copies: 2 + 2
# B22: IgG1-F509 (antibody)
# heavy: B1 heavy with T259V, A309Q, N386A, V430L
# light: not shown
# notes: EU numbering; copies: 2 + 2
# Molecular target: T1, human FcRn (soluble human FcRn complexed with β2-microglobulin) (human, UniProt P61769 21-119, limits assumed)
# T1 construct: also called hFcRn
# Experiment: SPR, pH 7.0;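 also: antibodies captured on a Protein L sensor chip with human FcRn injected as analyte, KD calculated from fitted association and dissociation rate constants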
row,Kd [nM],Binder
1,3100,B1
2,54,B2
3,310,B3
4,12,B4
5,53,B5
6,1300,B6
7,520,B7
8,26,B8
9,99,B9
10,31,B10
11,60,B11
12,39,B12
13,26,B13
14,12,B14
15,11,B15
16,19,B16
17,51,B17
18,190,B18
19,43,B19
20,110,B20
21,420,B21
22,58,B22
